The results in this text go back to IntAct's records for PubMed 21081649.

The chains are these.
B1: NAD-dependent protein deacetylase sirtuin-2 (Homo sapiens), Q8IXJ6-2 (parent)
chain: MDFLRNLFSQTLSLGSQKERLLDELTLEGVARYMQSERCRRVICLVGAGISTSAGIPDFRSPSTGLYDNLEKYHLPYPEAIFEISYFKKHPEPFFALAKELYPGQFKPTICHYFMRLLKDKGLLLRCYTQNIDTLERIAGLEQEDLVEAHGTFYTSHCVSASCRHEYPLSWMKEKIFSEVTPKCEDCQSLVKPDIVFFGESLPARFFSCMQSDFLKVDLLLVMGTSLQVQPFASLISKAPLSTPRLLINKEKAGQSDPFLGMIMGLGGGMDFDSKKAYRDVAWLGECDQGCLALAELLGWKKELEDLVRREHASIDAQSGAGVPNPSTSASPKKSPPPAKDEARTTEREKPQ

Variants of B1 are the subject of the test. The conditions noted are these: with h4_human H4C16, P62805.
As for MDFARNLFSQTASLGSQKERLLDELTLEGVARYMQSERCRRVICLVGAGISTSAGIPDFRSPSTGLYDNLEKYHLPYPEAIFEISYFKKHPEPFFALAKELYPGQFKPTICHYFMRLLKDKGLLLRCYTQNIDTLERIAGLEQEDLVEAYGTFYTSHCVSASCRHEYPLSWMKEKIFSEVTPKCEDCQSLVKPDIVFFGESLPARFFSCMQSDFLKVDLLLVMGTSLQVQPFASLISKAPLSTPRLLINKEKAGQSDPFLGMIMGLGGGMDFDSKKAYRDVAWLGECDQGCLALAELLGWKKELEDLVRREHASIDAQSGAGVPNPSTSASPKKSPPPAKDEARTTEREKPQ [L4A;L12A;H150Y], the “effect of a mutation on the interaction” value is given as “increasing interaction”.
